Source: the supplement of paper PMC11246515
± gives the standard deviation of the averaged measurements.

Assay: total protein half-life in vivo (active degradation + dilution); higher = more stable protein
[1] = E. coli NCM3722 delta-clpP delta-lon delta-hslV, growth: N-lim chemostat, doubling time 6 h
[2] = wild type E. coli NCM3722, growth: N-lim chemostat, doubling time 12 h
[3] = wild type E. coli NCM3722, growth: P-lim chemostat, doubling time 12 h
[4] = E. coli NCM3722 delta-clpP, growth: N-lim chemostat, doubling time 6 h
[5] = E. coli NCM3722 delta-hslV, growth: N-lim chemostat, doubling time 6 h
[6] = E. coli NCM3722 delta-lon, growth: N-lim chemostat, doubling time 6 h
[7] = E. coli NCM3722 delta-smpB, growth: N-lim chemostat, doubling time 6 h
[8] = wild type E. coli NCM3722, growth: C-lim chemostat, doubling time 3 h
[9] = wild type E. coli NCM3722, growth: C-lim chemostat, doubling time 6 h
[10] = wild type E. coli NCM3722, growth: C-lim chemostat, doubling time 12 h
[11] = wild type E. coli NCM3722, growth: N-lim chemostat, doubling time 6 h
[12] = wild type E. coli NCM3722, growth: P-lim chemostat, doubling time 6 h

Sequence | total protein half-life in vivo [1] [h] | total protein half-life in vivo [2] [h] | total protein half-life in vivo [3] [h] | total protein half-life in vivo [4] [h] | total protein half-life in vivo [5] [h] | total protein half-life in vivo [6] [h] | total protein half-life in vivo [7] [h] | total protein half-life in vivo [8] [h] | total protein half-life in vivo [9] [h] | total protein half-life in vivo [10] [h] | total protein half-life in vivo [11] [h] | total protein half-life in vivo [12] [h]
MNNLPVVRSPWRIVILLLGFTFLYAPMLMLVIYSFNSSKLVTVWAGWSTRWYGELLRDDAMMSAVGLSLTIAACAATAAAILGTIAAVVLVRFGRFRGSNGFAFMITAPLVMPDVITGLSLLLLFVALAHAIGWPADRGMLTIWLAHVTFCTAYVAVVISSRLRELDRSIEEAAMDLGATPLKVFFVITLPMIMPAIISGWLLAFTLSLDDLVIASFVSGPGATTLPMLVFSSVRMGVNPEINALATLILGAVGIVGFIAWYLMARAEKQRIRDIQRARRG [P0AFL1] | 5.96 | > 16 | 10.3 |  |  |  |  |  |  |  |  | 
MSDSNSRLVYSTETGRIDEPKAAPVRPKGDGVVRIQRQTSGRKGKGVCLITGVDLDDAELTKLAAELKKKCGCGGAVKDGVIEIQGDKRDLLKSLLEAKGMKVKLAGG | 5.12 ± 0.14 | 5.059 ± 0.042 | 5.7 ± 0.6 | 4.16 | 3.29 ± 0.22 | 4.11 ± 0.81 | 3.04 ± 0.3 | 2.76 ± 0.65 | 4.11 ± 0.38 | 5.29 ± 0.51 | 3.15 | 3.05
MSMVETAPSKIQVRNLNFYYGKFHALKNINLDIAKNQVTAFIGPSGCGKSTLLRTFNKMFELYPEQRAEGEILLDGDNILTNSQDIALLRAKVGMVFQKPTPFPMSIYDNIAFGVRLFEKLSRADMDERVQWALTKAALWNETKDKLHQSGYSLSGGQQQRLCIARGIAIRPEVLLLDEPCSALDPISTGRIEELITELKQDYTVVIVTHNMQQAARCSDHTAFMYLGELIEFSNTDDLFTKPAKKQTEDYITGRYG [P0AAH0] | 5.28 ± 0.14 | 9.09 ± 0.47 | 12.1 ± 0.36 |  | 4.78 ± 0.28 | 5.5 ± 0.56 | 4.68 ± 0.39 | 3.05 ± 0.094 |  | 9.16 ± 0.51 | 4.81 ± 0.24 | 5.49 ± 0.53
MHRQSFFLVPLICLSSALWAAPATVNVEVLQDKLDHPWALAFLPDNHGMLITLRGGELRHWQAGKGLSAPLSGVPDVWAHGQGGLLDVVLAPDFAQSRRIWLSYSEVGDDGKAGTAVGYGRLSDDLSKVTDFRTVFRQMPKLSTGNHFGGRLVFDGKGYLFIALGENNQRPTAQDLDKLQGKLVRLTDQGEIPDDNPFIKESGARAEIWSYGIRNPQGMAMNPWSNALWLNEHGPRGGDEINIPQKGKNYGWPLATWGINYSGFKIPEAKGEIVAGTEQPVFYWKDSPAVSGMAFYNSDKFPQWQQKLFIGALKDKDVIVMSVNGDKVTEDGRILTDRGQRIRDVRTGPDGYLYVLTDESSGELLKVSPRN | 1.95 ± 0.037 |  | 6.77 | 2.22 ± 1.1 | 1.44 ± 0.036 |  | 1.43 ± 0.033 | 1.63 ± 0.43 | 4.09 | 5.83 ± 1.6 | 2.13 | 
MSKHDTDTSDQHAAKRRWLNAHEEGYHKAMGNRQVQMIAIGGAIGTGLFLGAGARLQMAGPALALVYLICGLFSFFILRALGELVLHRPSSGSFVSYAREFLGEKAAYVAGWMYFINWAMTGIVDITAVALYMHYWGAFGGVPQWVFALAALTIVGTMNMIGVKWFAEMEFWFALIKVLAIVTFLVVGTVFLGSGQPLDGNTTGFHLITDNGGFFPHGLLPALVLIQGVVFAFASIEMVGTAAGECKDPQTMVPKAINSVIWRIGLFYVGSVVLLVMLLPWSAYQAGQSPFVTFFSKLGVPYIGSIMNIVVLTAALSSLNSGLYCTGRILRSMAMGGSAPSFMAKMSRQHVPYAGILATLVVYVVGVFLNYLVPSRVFEIVLNFASLGIIASWAFIIVCQMRLRKAIKEGKAADVSFKLPGAPFTSWLTLLFLLSVLVLMAFDYPNGTYTIAALPIIGILLVIGWFGVRKRVAEIHSTAPVVEEDEEKQEIVFKPETAS |  | 10.3 |  | 4.52 | 4.74 ± 0.064 | 4.87 |  | > 4 |  | 11.4 | 4.73 | 
MTITPATHAISINPATGEQLSVLPWAGADDIENALQLAAAGFRDWRETNIDYRAEKLRDIGKALRARSEEMAQMITREMGKPINQARAEVAKSANLCDWYAEHGPAMLKAEPTLVENQQAVIEYRPLGTILAIMPWNFPLWQVMRGAVPIILAGNGYLLKHAPNVMGCAQLIAQVFKDAGIPQGVYGWLNADNDGVSQMIKDSRIAAVTVTGSVRAGAAIGAQAGAALKKCVLELGGSDPFIVLNDADLELAVKAAVAGRYQNTGQVCAAAKRFIIEEGIASAFTERFVAAAAALKMGDPRDEENALGPMARFDLRDELHHQVEKTLAQGARLLLGGEKMAGAGNYYPPTVLANVTPEMTAFREEMFGPVAAITIAKDAEHALELANDSEFGLSATIFTTDETQARQMAARLECGGVFINGYCASDARVAFGGVKKSGFGRELSHFGLHEFCNIQTVWKDRI | 3.43 ± 0.22 | 3.65 ± 0.4 | 9.54 ± 0.88 | 2.38 ± 0.15 | 2.3185 ± 0.00041 | 3.35 ± 0.57 | 2.62 ± 0.24 | 2.87 ± 0.15 | 4.72 ± 0.27 | 7.87 ± 0.72 | 2.56 ± 0.092 | 5.341 ± 0.022
MNILLAFKAEPDAGMLAEKEWQAAAQGKSGPDISLLRSLLGADEQAAAALLLAQRKNGTPMSLTALSMGDERALHWLRYLMALGFEEAVLLETAADLRFAPEFVARHIAEWQHQNPLDLIITGCQSSEGQNGQTPFLLAEMLGWPCFTQVERFTLDALFITLEQRTEHGLRCCRVRLPAVIAVRQCGEVALPVPGMRQRMAAGKAEIIRKTVAAEMPAMQCLQLARAEQRRGATLIDGQTVAEKAQKLWQDYLRQRMQP | 5.73 ± 0.78 |  |  |  |  |  |  |  |  |  |  | 
MMRKMLLAAALSVTAMTAHADYQCSVTPRDDVIVSPQTVQVKGENGNLVITPDGNVMYNGKQYSLNAAQREQAKDYQAELRSTLPWIDEGAKSRVEKARIALDKIIVQEMGESSKMRSRLTKLDAQLKEQMNRIIETRSDGLTFHYKAIDQVRAEGQQLVNQAMGGILQDSINEMGAKAVLKSGGNPLQNVLGSLGGLQSSIQTEWKKQEKDFQQFGKDVCSRVVTLEDSRKALVGNLK [P0ADS9] | 3.83 ± 0.21 | 10.3 ± 0.12 | 10 ± 0.48 | 5 ± 1 | 5.36 ± 0.32 | 6.04 ± 0.83 | 5.818 ± 0.046 | 2.92 ± 0.17 | 5.11 ± 0.8 | 8.05 ± 1.5 | 5.76 ± 0.15 | 5.0188 ± 0.0027
MLDIDKSTVDFLVTENMVQEVEKVLSHDVPLVHAIVEEMVKRDIDRIYFVACGSPLNAAQTAKHLADRFSDLQVYAISGWEFCDNTPYRLDDRCAVIGVSDYGKTEEVIKALELGRACGALTAAFTKRADSPITSAAEFSIDYQADCIWEIHLLLCYSVVLEMITRLAPNAEIGKIKNDLKQLPNALGHLVRTWEEKGRQLGELASQWPMIYTVAAGPLRPLGYKEGIVTLMEFTWTHGCVIESGEFRHGPLEIVEPGVPFLFLLGNDESRHTTERAINFVKQRTDNVIVIDYAEISQGLHPWLAPFLMFVPMEWLCYYLSIYKDHNPDERRYYGGLVEY [P0AC00] |  |  |  |  |  |  |  |  | 2.37 ± 0.41 | 2.71 |  | 
MFRRRGVTLTKALLTAVCMLAAPLTQAISVGNLTFSLPSETDFVSKRVVNNNKSARIYRIAISAIDSPGSSELRTRPVDGELLFAPRQLALQAGESEYFKFYYHGPRDNRERYYRVSFREVPTRNHTRRSPTGGVVSTEPVVVMDTILVVRPRQVQFKWSFDKVTGTVSNTGNTWFKLLIKPGCDSTEEEGDAWYLRPGDVVHQPELRQPGNHYLVYNDKFIKISDSCPAKPPSAD | 4.58 | 6.84 | 9.993 ± 0.096 | 4.57 ± 0.28 | 3.66 | 4.37 | 4.89 ± 0.82 | 2.51 ± 0.53 | 3.37 | 9.74 | 3.84 | 
MKTIFRYILFLALYSCCNTVSAYTSFIVGNNAGVDNYRGPSTAAQMTFNYTSTASNLVFYKPTQLGPTGVKMYWSYLDTGTGGGILYCNTSGRANPGPITIENAMVYSGKDYGGHKLFNTSVPGLYYTMLISRVWSAYDTITDIQSPGIYIGDPSNQEFFFSVTDSDLQTKGCNKADDYDKFWAIGGIVHNITVEFYTDTNFDPTLNQQVQLSSSSNYLYSFKAYSPGTKVVDHSNHIYVNFTLNNVKLTLPTCFTSILTGPSVNGSTVRMGEYSSGTIKNGASPVPFDISLQNCIRVRNIETKLVTGKVGTQNTQLLGNTLTGSTAAKGVGVLIEGLATSKNPLMTLKPNDTNSVYIDYETEDDTSDGVYPNQGNGTSQPLHFQATLKQDGNIAIEPGEFKATSTFQVTYP |  |  |  |  |  |  | 4.93 ± 0.34 |  |  | 4.96 |  | 
MQQIARSVALAFNNLPRPHRVMLGSLTVLTLAVAVWRPYVYHRDATPIVKTIELEQNEIRSLLPEASEPIDQAAQEDEAIPQDELDDKIAGEAGVHEYVVSTGDTLSSILNQYGIDMGDITQLAAADKELRNLKIGQQLSWTLTADGELQRLTWEVSRRETRTYDRTAANGFKMTSEMQQGEWVNNLLKGTVGGSFVASARNAGLTSAEVSAVIKAMQWQMDFRKLKKGDEFAVLMSREMLDGKREQSQLLGVRLRSEGKDYYAIRAEDGKFYDRNGTGLAKGFLRFPTAKQFRISSNFNPRRTNPVTGRVAPHRGVDFAMPQGTPVLSVGDGEVVVAKRSGAAGYYVAIRHGRSYTTRYMHLRKILVKPGQKVKRGDRIALSGNTGRSTGPHLHYEVWINQQAVNPLTAKLPRTEGLTGSDRREFLAQAKEIVPQLRFD [P0AFS9] | 3.29 |  |  |  | 6.32 |  |  | 0.826 ± 0.34 | 3.3 ± 0.13 | 6.19 | 5.39 | 
MTRLAEILDQMSAVLNDLKTVMDQEQQHLSMGQINGSQLQWITEQKSSLLATLDYLEQLRRKEPNTANSVDISQRWQEITVKTQQLRQMNQHNGWLLEGQIERNQQALEMLKPHQEPTLYGANGQTSTTHRGGKKISI |  |  |  |  |  |  |  | 1.15 ± 0.27 | 4.91 | 3.28 |  | 
MKKVWLNRYPADVPTEINPDRYQSLVDMFEQSVARYADQPAFVNMGEVMTFRKLEERSRAFAAYLQQGLGLKKGDRVALMMPNLLQYPVALFGILRAGMIVVNVNPLYTPRELEHQLNDSGASAIVIVSNFAHTLEKVVDKTAVQHVILTRMGDQLSTAKGTVVNFVVKYIKRLVPKYHLPDAISFRSALHNGYRMQYVKPELVPEDLAFLQYTGGTTGVAKGAMLTHRNMLANLEQVNATYGPLLHPGKELVVTALPLYHIFALTINCLLFIELGGQNLLITNPRDIPGLVKELAKYPFTAITGVNTLFNALLNNKEFQQLDFSSLHLSAGGGMPVQQVVAERWVKLTGQYLLEGYGLTECAPLVSVNPYDIDYHSGSIGLPVPSTEAKLVDDDDNEVPPGQPGELCVKGPQVMLGYWQRPDATDEIIKNGWLHTGDIAVMDEEGFLRIVDRKKDMILVSGFNVYPNEIEDVVMQHPGVQEVAAVGVPSGSSGEAVKIFVVKKDPSLTEESLVTFCRRQLTGYKVPKLVEFRDELPKSNVGKILRRELRDEARGKVDNKA |  | 10.9 ± 1.6 | 10.8 ± 1.1 | 5.82 ± 0.16 | 5.05 ± 0.23 | 5.34 ± 0.82 | 4.279 ± 0.022 | 1.68 ± 0.16 | 3.98 ± 0.57 | 6.59 ± 0.46 | 4.879 ± 0.022 | 4.93 ± 0.11
MFDYILSLGGTVFVPIIMIVIGLIFRIPWLQAIKAGVTVGIGFVGMGLVIVMAIDSLSPPIKVMIERFGLALHVFDVGAGPASGVGYATAIGAMIIPVIFLLNVAMLVTRLTKTMNVDIYNYWHYAITGTVVQLMTGSLIYGVLGAICHAALSLKMADWTAKRVQNIVGLEGISIPQGYGSSSVPLFVLLDAIYEKIPFMKGRNIDAQEIQKRYGMVGDPVIIGVVLGLIFGLAAGEGFKGCASLMITVAAIMVLFPRMIRLIVEGLLPISDGARKFFQKYFKGREVYIGLDTAVTLGHPTTIAVGLLLIPIMLILASILPGNKVLPLADLPVAPFFICMATVIHRGDLVRTLISGVIVMITVLLIATQFAPYFTEMALKGGFSFAGESAQISALSVGNMFGWSISELMSLGIIGVVVAVGIVASVVLFLRKRELSE |  |  |  |  |  |  | 7.4 |  | 6 ± 0.68 |  |  | 
